Reference: publication PMC11263391 (Nature Communications, 2024)

Experiments:
Conditions in all cases: both partners purified
[1] = molecular target: T1, ASB7-Elongin B-Elongin C ternary complex (human, UniProt Q9H672 11-318; Q15370 1-104; Q15369 17-112); assay: pull-down; GST or GST-fusion degron peptides (~50 µg) on glutathione magnetic beads, ~30 µg purified ASB7-Elongin B/C added; 20 mM Tris-HCl pH 7.5, 400 mM NaCl, 2 mM β-mercaptoethanol; 4 °C; glutathione elution, Coomassie-stained SDS-PAGE
T1 construct: ASB7, human, residues 11-318; Elongin B, human, residues 1-104; ASB7 cloned into pET28-MKH8SUMO (Addgene plasmid #79526 is the vector); Elongin B and C in pCDFDuet-1; tag cleaved with TEV protease; also called ASB7-Elongin B/C; wild-type ASB7; source: E. coli BL21 (DE3), co-expressed, purified (Ni-NTA, Superdex 200); not shown: SUMO, N-terminal, cleaved; copies: + +

[2] = molecular target: T2, ASB7-Elongin B-Elongin C ternary complex (wild-type ASB7, residues 11-318) (human, UniProt Q9H672 11-318; Q15370 1-104; Q15369 17-112); assay: ITC; peptide in the syringe titrated into ASB7-Elongin B/C in the cell; MicroCal PEAQ-ITC, 16 °C, 20 mM Tris-HCl pH 7.5, 150 mM NaCl; 39–156 μM protein, 0.8–4 mM peptide; repeated three times, mean ± SD
T2 construct: human ASB7, residues 11-318; human Elongin B, residues 1-104; also called ASB7-Elongin B/C; WT; source: E. coli BL21 (DE3), co-expressed, purified (Ni-NTA, Superdex 200); not shown: SUMO, N-terminal, cleaved; copies: + +

[3] = molecular target: T1, ASB7-Elongin B-Elongin C ternary complex; assay: ITC; peptide (0.8–4 mM) titrated into the ASB7 complex (39–156 µM); 16 °C; 20 mM Tris-HCl pH 7.5, 150 mM NaCl; MicroCal PEAQ-ITC
Target sequence in this assay (Q9H672 11-318, chain 1 of 3): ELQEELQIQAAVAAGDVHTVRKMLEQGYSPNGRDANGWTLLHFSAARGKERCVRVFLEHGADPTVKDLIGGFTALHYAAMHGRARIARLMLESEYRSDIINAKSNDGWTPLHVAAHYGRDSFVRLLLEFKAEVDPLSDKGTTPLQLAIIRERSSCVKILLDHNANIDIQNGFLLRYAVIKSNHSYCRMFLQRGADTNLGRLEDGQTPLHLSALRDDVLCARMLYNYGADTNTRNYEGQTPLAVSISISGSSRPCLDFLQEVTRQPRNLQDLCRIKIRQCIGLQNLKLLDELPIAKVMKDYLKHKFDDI
Target sequence in this assay (Q15370 1-104, chain 2 of 3): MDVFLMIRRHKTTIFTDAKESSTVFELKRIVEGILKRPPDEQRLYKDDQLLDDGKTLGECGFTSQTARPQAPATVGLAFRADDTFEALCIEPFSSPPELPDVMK
Target sequence in this assay (Q15369 17-112, chain 3 of 3): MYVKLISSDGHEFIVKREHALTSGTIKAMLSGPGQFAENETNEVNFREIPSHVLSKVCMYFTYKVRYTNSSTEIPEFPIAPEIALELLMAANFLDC

T2 sequence (Q9H672 11-318, chain 1 of 3): as the sequence (Q9H672 11-318, chain 1 of 3) above
T2 sequence (Q15370 1-104, chain 2 of 3): as the sequence (Q15370 1-104, chain 2 of 3) above
T2 sequence (Q15369 17-112, chain 3 of 3): as the sequence (Q15369 17-112, chain 3 of 3) above

B1: GST-fused CLIP2 degron peptide (peptide)
chain: SGPGAQQKEIGELKAVMEGIKMEHQLELGNLQAKHDLET
notes: degron stretch of CLIP2; pGEX vector; also called GST-tagged CLIP2; not shown: GST, N-terminal, kept
[1]
  binding result: binds

B2: GIGYF1 degron peptide (peptide)
peptide: EDDEGLKHLQQEAEKLVASLQDS
notes: stretch of GIGYF1, a reported ASB7 substrate; source: synthetic peptide (Shanghai Apeptide Co., Ltd.)
[2]
  Kd: 1000 nM
  stoichiometry N: 0.78

B3: LZTS1 degron peptide Y19R (peptide)
peptide: RQELESLMKEQDLLETKLRSRER
notes: numbers count on: the degron, E1 = third letter of the 23-residue peptide; source: synthetic peptide (Shanghai Apeptide Co., Ltd.)
[2]
  Kd: 700 nM
  stoichiometry N: 0.71

B4: LZTS1 degron peptide, 17 residues (ELESLMKEQDLLETKLR) (peptide)
peptide: ELESLMKEQDLLETKLR
notes: LZTS1 degron, positions E1 to R17 of the degron numbering; also called 17-residue degron; source: synthetic peptide (Shanghai Apeptide Co., Ltd.)
[2]
  Kd: 5100 nM
  stoichiometry N: 1.12

B5: GST-fused CCDC17 degron peptide (peptide)
chain: GMSRLFGLEQEIRELQAEAGRTRGALEVLGARIQELQAE
notes: degron stretch of CCDC17; pGEX vector; also called GST-tagged CCDC17; not shown: GST, N-terminal, kept
[1]
  binding result: binds

B6: LZTS1 degron peptide, 21 residues (RQELESLMKEQDLLETKLRSY) (peptide)
peptide: RQELESLMKEQDLLETKLRSY
notes: LZTS1 degron shortened by two residues at the C-terminus; source: synthetic peptide (Shanghai Apeptide Co., Ltd.)
[2]
  Kd: 900 nM
  stoichiometry N: 0.91

B7: LZTS1 degron peptide, 21 residues (ELESLMKEQDLLETKLRSYER) (peptide)
peptide: ELESLMKEQDLLETKLRSYER
notes: LZTS1 degron shortened by two residues at the N-terminus; source: synthetic peptide (Shanghai Apeptide Co., Ltd.)
[2]
  Kd: 700 nM
  stoichiometry N: 0.68

B8: CEP152 degron peptide (peptide)
peptide: ELEKAKQECQDLKGKLEKCCRH
notes: stretch of CEP152, a reported ASB7 substrate; source: synthetic peptide (Shanghai Apeptide Co., Ltd.)
[2]
  stoichiometry N: 1.27

B9: CLIP2 degron peptide (peptide)
peptide: EIGELKAVMEGIKMEHQLELGN
notes: stretch of CLIP2, a reported ASB7 substrate; source: synthetic peptide (Shanghai Apeptide Co., Ltd.)
[2]
  Kd: 700 nM
  stoichiometry N: 0.71

B10: GST-fused LZTS1-degron (peptide)
chain: VLQLQQEKRQLRQELESLMKEQDLLETKLRSYEREKTSFG
notes: degron stretch of LZTS1; pGEX vector; also called GST-tagged LZTS1; not shown: GST, N-terminal, kept
[1]
  binding result: binds

B11: GST-fused CEP152 degron peptide (peptide)
chain: GHCFQELEKAKQECQDLKGKLEKCCRHLQHLERKHK
notes: degron stretch of CEP152; pGEX vector; also called GST-tagged CEP152; not shown: GST, N-terminal, kept
[1]
  binding result: binds

B12: GST-fused GIGYF1 degron peptide (peptide)
chain: SSAGPPGDLEDDEGLKHLQQEAEKLVASLQDSSLEEEQFT
notes: degron stretch of GIGYF1; pGEX vector; also called GST-tagged GIGYF1; not shown: GST, N-terminal, kept
[1]
  binding result: binds

B13: DDA3 degron peptide (peptide)
peptide: PEKLEEILDEANRLAAQLEQCAL
notes: stretch of DDA3; the text names the region as residues 70-93 (24 residues) and the peptide as 23 residues; also called DDA3 peptide; source: synthetic peptide (Shanghai Apeptide Co., Ltd.)
[2]
  stoichiometry N: 1.32

B14: CCDC17 degron peptide (peptide)
peptide: LEQEIRELQAEAGRTRGALEVLG
notes: stretch of CCDC17, a reported ASB7 substrate; also called CCDC17 peptide; source: synthetic peptide (Shanghai Apeptide Co., Ltd.)
[2]
  Kd: 1100 nM
  stoichiometry N: 0.76

B15: DDA3-degron 23-residue peptide (peptide)
peptide: SPEKLEEILDEANRLAAQLEQCAL
notes: DDA3; the region covering residues 70-93 was named as the potential degron and a 23-residue peptide was synthesized; residues 70-93 are 24 residues, the peptide is said to have 23; also called DDA3 residues 70–93; source: synthetic peptide (Shanghai Apeptide Co., Ltd.)
[3]
  Kd: 1300 nM
